Source: publication PMC10786891, “Massively parallel profiling of RNA-targeting CRISPR-Cas13d”

T1: EsCas13d, nuclease-dead (Eubacterium siraeum, UniProt B0MS50, R295A;H300A;R849A;H854A)
T1 sequence: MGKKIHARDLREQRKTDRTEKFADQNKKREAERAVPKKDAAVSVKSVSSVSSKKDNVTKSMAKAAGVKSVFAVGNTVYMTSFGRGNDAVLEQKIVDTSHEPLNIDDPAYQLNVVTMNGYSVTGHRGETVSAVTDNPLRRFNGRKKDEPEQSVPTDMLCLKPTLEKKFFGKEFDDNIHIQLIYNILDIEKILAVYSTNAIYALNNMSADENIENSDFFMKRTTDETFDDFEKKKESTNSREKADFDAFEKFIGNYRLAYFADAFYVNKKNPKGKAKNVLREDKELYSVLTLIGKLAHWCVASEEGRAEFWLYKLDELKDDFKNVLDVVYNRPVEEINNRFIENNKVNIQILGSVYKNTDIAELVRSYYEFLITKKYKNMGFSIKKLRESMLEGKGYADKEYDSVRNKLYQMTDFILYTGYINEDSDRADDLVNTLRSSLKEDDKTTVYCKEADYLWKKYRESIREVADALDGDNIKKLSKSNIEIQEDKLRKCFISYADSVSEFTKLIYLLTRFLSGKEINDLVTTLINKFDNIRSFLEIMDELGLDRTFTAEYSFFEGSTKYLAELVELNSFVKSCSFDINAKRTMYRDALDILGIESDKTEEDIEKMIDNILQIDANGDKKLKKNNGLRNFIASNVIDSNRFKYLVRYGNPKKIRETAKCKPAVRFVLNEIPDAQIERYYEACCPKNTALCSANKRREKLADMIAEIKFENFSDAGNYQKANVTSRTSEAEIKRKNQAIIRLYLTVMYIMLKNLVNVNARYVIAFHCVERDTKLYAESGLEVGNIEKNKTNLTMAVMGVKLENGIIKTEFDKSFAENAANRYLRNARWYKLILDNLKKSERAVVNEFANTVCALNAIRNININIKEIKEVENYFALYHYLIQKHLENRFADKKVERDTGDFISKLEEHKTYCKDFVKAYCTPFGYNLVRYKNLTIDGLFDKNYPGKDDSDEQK

B1: target 1 insG 3' of 22,insC 3' of 12 (mixed)
RNA 1: CACCCGUGCAAAAAUGCAGGGGUCUAAAACUGAGCGGAUAACCUCUCUAUGG
RNA 2: GGGAAUGGAUCCACAUCUACGAAUUCGUACGCAUAGAGAGGCUUAUCCGCUCACCGAGAUCGGAAGAGCACACGU
B2: target 1 insA 3' of 12,insU 3' of 4 (mixed)
RNA 1: CACCCGUGCAAAAAUGCAGGGGUCUAAAACUGAGCGGAUAACCUCUCUAUGG
RNA 2: GGGAAUGGAUCCACAUCUACGAAUUCGUACCAUAGAGAGGAUUAUCCGCUUCACCGAGAUCGGAAGAGCACACGU
B3: target 2 MT 5'PFS CUC 3'PFS AAC (mixed)
RNA 1: CACCCGUGCAAAAUUGCAGGGGUCUAAAACCUUCUCCAAAUUGUUUCAUCCU
RNA 2: GGGAAUGGAUCCACAUCUACGAAUUCCUCAGGAUGAAACAAUUUGGAGAAGAACAGAUCGGAAGAGCACACGU
B4: target 2 MT 5'PFS GCG 3'PFS AUG (mixed)
RNA 1: CACCCGUGCAAAAUUGCAGGGGUCUAAAACCUUCUCCAAAUUGUUUCAUCCU
RNA 2: GGGAAUGGAUCCACAUCUACGAAUUCGCGAGGAUGAAACAAUUUGGAGAAGAUGAGAUCGGAAGAGCACACGU
B5: target 2 MT 5'PFS AGC 3'PFS AUG (mixed)
RNA 1: CACCCGUGCAAAAUUGCAGGGGUCUAAAACCUUCUCCAAAUUGUUUCAUCCU
RNA 2: GGGAAUGGAUCCACAUCUACGAAUUCAGCAGGAUGAAACAAUUUGGAGAAGAUGAGAUCGGAAGAGCACACGU
B6: target 2 MT 5'PFS GCG 3'PFS AUC (mixed)
RNA 1: CACCCGUGCAAAAUUGCAGGGGUCUAAAACCUUCUCCAAAUUGUUUCAUCCU
RNA 2: GGGAAUGGAUCCACAUCUACGAAUUCGCGAGGAUGAAACAAUUUGGAGAAGAUCAGAUCGGAAGAGCACACGU
B7: target 2 MT 5'PFS UGU 3'PFS UGU (mixed)
RNA 1: CACCCGUGCAAAAUUGCAGGGGUCUAAAACCUUCUCCAAAUUGUUUCAUCCU
RNA 2: GGGAAUGGAUCCACAUCUACGAAUUCUGUAGGAUGAAACAAUUUGGAGAAGUGUAGAUCGGAAGAGCACACGU
B8: target 2 MT 5'PFS AGC 3'PFS AUC (mixed)
RNA 1: CACCCGUGCAAAAUUGCAGGGGUCUAAAACCUUCUCCAAAUUGUUUCAUCCU
RNA 2: GGGAAUGGAUCCACAUCUACGAAUUCAGCAGGAUGAAACAAUUUGGAGAAGAUCAGAUCGGAAGAGCACACGU
B9: target 2 MT 5'PFS GUU 3'PFS AUU (mixed)
RNA 1: CACCCGUGCAAAAUUGCAGGGGUCUAAAACCUUCUCCAAAUUGUUUCAUCCU
RNA 2: GGGAAUGGAUCCACAUCUACGAAUUCGUUAGGAUGAAACAAUUUGGAGAAGAUUAGAUCGGAAGAGCACACGU
B10: target 2 MT 5'PFS GCG 3'PFS UUC (mixed)
RNA 1: CACCCGUGCAAAAUUGCAGGGGUCUAAAACCUUCUCCAAAUUGUUUCAUCCU
RNA 2: GGGAAUGGAUCCACAUCUACGAAUUCGCGAGGAUGAAACAAUUUGGAGAAGUUCAGAUCGGAAGAGCACACGU
B11: target 2 MT 5'PFS ACC 3'PFS CAA (mixed)
RNA 1: CACCCGUGCAAAAUUGCAGGGGUCUAAAACCUUCUCCAAAUUGUUUCAUCCU
RNA 2: GGGAAUGGAUCCACAUCUACGAAUUCACCAGGAUGAAACAAUUUGGAGAAGCAAAGAUCGGAAGAGCACACGU
B12: target 2 MT 5'PFS CUC 3'PFS AAG (mixed)
RNA 1: CACCCGUGCAAAAUUGCAGGGGUCUAAAACCUUCUCCAAAUUGUUUCAUCCU
RNA 2: GGGAAUGGAUCCACAUCUACGAAUUCCUCAGGAUGAAACAAUUUGGAGAAGAAGAGAUCGGAAGAGCACACGU
B13: target 2 MT 5'PFS CUC 3'PFS AAA (mixed)
RNA 1: CACCCGUGCAAAAUUGCAGGGGUCUAAAACCUUCUCCAAAUUGUUUCAUCCU
RNA 2: GGGAAUGGAUCCACAUCUACGAAUUCCUCAGGAUGAAACAAUUUGGAGAAGAAAAGAUCGGAAGAGCACACGU
B14: target 2 MT 5'PFS CAC 3'PFS UAC (mixed)
RNA 1: CACCCGUGCAAAAUUGCAGGGGUCUAAAACCUUCUCCAAAUUGUUUCAUCCU
RNA 2: GGGAAUGGAUCCACAUCUACGAAUUCCACAGGAUGAAACAAUUUGGAGAAGUACAGAUCGGAAGAGCACACGU
B15: target 2 MT 5'PFS UAU 3'PFS GAA (mixed)
RNA 1: CACCCGUGCAAAAUUGCAGGGGUCUAAAACCUUCUCCAAAUUGUUUCAUCCU
RNA 2: GGGAAUGGAUCCACAUCUACGAAUUCUAUAGGAUGAAACAAUUUGGAGAAGGAAAGAUCGGAAGAGCACACGU
B16: target 2 MT 5'PFS GCG 3'PFS UUA (mixed)
RNA 1: CACCCGUGCAAAAUUGCAGGGGUCUAAAACCUUCUCCAAAUUGUUUCAUCCU
RNA 2: GGGAAUGGAUCCACAUCUACGAAUUCGCGAGGAUGAAACAAUUUGGAGAAGUUAAGAUCGGAAGAGCACACGU
B17: target 2 MT 5'PFS CUC 3'PFS AAU (mixed)
RNA 1: CACCCGUGCAAAAUUGCAGGGGUCUAAAACCUUCUCCAAAUUGUUUCAUCCU
RNA 2: GGGAAUGGAUCCACAUCUACGAAUUCCUCAGGAUGAAACAAUUUGGAGAAGAAUAGAUCGGAAGAGCACACGU
B18: target 2 MT 5'PFS GCG 3'PFS AUA (mixed)
RNA 1: CACCCGUGCAAAAUUGCAGGGGUCUAAAACCUUCUCCAAAUUGUUUCAUCCU
RNA 2: GGGAAUGGAUCCACAUCUACGAAUUCGCGAGGAUGAAACAAUUUGGAGAAGAUAAGAUCGGAAGAGCACACGU
B19: target 2 MT 5'PFS CGC 3'PFS UCG (mixed)
RNA 1: CACCCGUGCAAAAUUGCAGGGGUCUAAAACCUUCUCCAAAUUGUUUCAUCCU
RNA 2: GGGAAUGGAUCCACAUCUACGAAUUCCGCAGGAUGAAACAAUUUGGAGAAGUCGAGAUCGGAAGAGCACACGU
B20: target 2 MT 5'PFS AGC 3'PFS AUA (mixed)
RNA 1: CACCCGUGCAAAAUUGCAGGGGUCUAAAACCUUCUCCAAAUUGUUUCAUCCU
RNA 2: GGGAAUGGAUCCACAUCUACGAAUUCAGCAGGAUGAAACAAUUUGGAGAAGAUAAGAUCGGAAGAGCACACGU
B21: target 2 MT 5'PFS CAA 3'PFS CCG (mixed)
RNA 1: CACCCGUGCAAAAUUGCAGGGGUCUAAAACCUUCUCCAAAUUGUUUCAUCCU
RNA 2: GGGAAUGGAUCCACAUCUACGAAUUCCAAAGGAUGAAACAAUUUGGAGAAGCCGAGAUCGGAAGAGCACACGU
B22: target 2 MT 5'PFS ACU 3'PFS UGU (mixed)
RNA 1: CACCCGUGCAAAAUUGCAGGGGUCUAAAACCUUCUCCAAAUUGUUUCAUCCU
RNA 2: GGGAAUGGAUCCACAUCUACGAAUUCACUAGGAUGAAACAAUUUGGAGAAGUGUAGAUCGGAAGAGCACACGU
B23: target 2 MT 5'PFS ACC 3'PFS CAG (mixed)
RNA 1: CACCCGUGCAAAAUUGCAGGGGUCUAAAACCUUCUCCAAAUUGUUUCAUCCU
RNA 2: GGGAAUGGAUCCACAUCUACGAAUUCACCAGGAUGAAACAAUUUGGAGAAGCAGAGAUCGGAAGAGCACACGU
B24: target 2 MT 5'PFS CGC 3'PFS UCA (mixed)
RNA 1: CACCCGUGCAAAAUUGCAGGGGUCUAAAACCUUCUCCAAAUUGUUUCAUCCU
RNA 2: GGGAAUGGAUCCACAUCUACGAAUUCCGCAGGAUGAAACAAUUUGGAGAAGUCAAGAUCGGAAGAGCACACGU
B25: target 2 MT 5'PFS CAA 3'PFS CCA (mixed)
RNA 1: CACCCGUGCAAAAUUGCAGGGGUCUAAAACCUUCUCCAAAUUGUUUCAUCCU
RNA 2: GGGAAUGGAUCCACAUCUACGAAUUCCAAAGGAUGAAACAAUUUGGAGAAGCCAAGAUCGGAAGAGCACACGU
B26: target 2 MT 5'PFS CAC 3'PFS UAA (mixed)
RNA 1: CACCCGUGCAAAAUUGCAGGGGUCUAAAACCUUCUCCAAAUUGUUUCAUCCU
RNA 2: GGGAAUGGAUCCACAUCUACGAAUUCCACAGGAUGAAACAAUUUGGAGAAGUAAAGAUCGGAAGAGCACACGU
B27: target 2 MT 5'PFS CGC 3'PFS UCC (mixed)
RNA 1: CACCCGUGCAAAAUUGCAGGGGUCUAAAACCUUCUCCAAAUUGUUUCAUCCU
RNA 2: GGGAAUGGAUCCACAUCUACGAAUUCCGCAGGAUGAAACAAUUUGGAGAAGUCCAGAUCGGAAGAGCACACGU
B28: target 2 MT 5'PFS CAC 3'PFS UAU (mixed)
RNA 1: CACCCGUGCAAAAUUGCAGGGGUCUAAAACCUUCUCCAAAUUGUUUCAUCCU
RNA 2: GGGAAUGGAUCCACAUCUACGAAUUCCACAGGAUGAAACAAUUUGGAGAAGUAUAGAUCGGAAGAGCACACGU

Target: T1, EsCas13d, nuclease-dead
Assay: crRNA (strand 1, pre-loaded); Mg2+; 40 mM Tris-HCl pH 7.5, 150 mM NaCl, 6 mM MgCl2, 1 mM DTT, 0.1% Tween-20, 0.2 mg/ml BSA; 25 C; 10 min per concentration, then washed
Conditions: tags: His6-TwinStrep-SUMO cleaved; N-terminal SNAP kept (SNAP-Surface 488); label: 3' end held by stalled T7 RNA polymerase

In order of rising Kd:
1. B14  1.66 ± 0.25 nM
2. B28  1.87 ± 0.31 nM
3. B13  2.3 ± 0.6 nM
4. B26  2.3 ± 0.4 nM
5. B12  2.32 ± 0.34 nM
6. B17  2.32 ± 0.27 nM
7. B3  2.5 ± 0.5 nM
8. B11  ~4.3 nM
9. B23  5.1 ± 0.9 nM
10. B24  5.5 ± 1.7 nM
11. B20  7.1 ± 1.3 nM
12. B21  7.3 ± 2.9 nM
13. B19  7.9 ± 1.1 nM
14. B22  8.1 ± 1 nM
15. B25  10 ± 5 nM
16. B6  10.1 ± 0.9 nM
17. B18  10.6 ± 2.1 nM
18. B8  10.9 ± 2.8 nM
19. B9  11.6 ± 1.4 nM
20. B5  12.6 ± 2.9 nM
21. B15  14.3 ± 3.1 nM
22. B4  15.5 ± 2.1 nM
23. B7  18.9 ± 2.7 nM
24. B10  21 ± 4 nM
25. B16  21 ± 4 nM
26. B2  26.3 ± 1.7 nM
27. B1  42 ± 6 nM
28. B27  ~60 nM
